# From publication PMC7380208
# Biological target: Flt3 Receptor Interacting Lectin (FRIL) from Lablab purpureus (Lablab purpureus) (UniProt Q9ZTA9)
# Assay: SEC-MALS
substance,measurement,value
Flt3 Receptor Interacting Lectin (FRIL) from Lablab purpureus (from UniProt Q9ZTA9) (natural protein),stoichiometry N,4
